Measurements published in the supplement of paper PMC9112550, “Optimization of the antimicrobial peptide Bac7 by deep mutational scanning” (BMC Biology, 2022).

Tested on: Escherichia coli TOP10
Experiment: shrunken log2 fold change of peptide-encoding DNA abundance (4.5 h post-induction vs induction); higher = less antimicrobial activity (less host growth inhibition)
Settings: time post-induction: 4.5 h; library: site-saturation at positions 5, 18, 19, 20
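Also: peptides expressed intracellularly from a pBAD plasmid library in pooled LB shake-flask culture, induced with 0.3% L-arabinose, DNA abundance read by NGS, three biological replicates, DESeq2 with apeglm shrinkage.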

Sequence | shrunken log2 fold change
RRIRLRPPRLPRPRPRPHYRPRP | -0.0911
RRIRCRPPRLPRPRPRPIAGPRP | 0.195
RRIRPRPPRLPRPRPRPPGHPRP | 0.371
RRIRMRPPRLPRPRPRPRKCPRP | 0.0129
RRIRLRPPRLPRPRPRPKPKPRP | 0.607
RRIRSRPPRLPRPRPRPVDCPRP | -0.12
RRIRYRPPRLPRPRPRPAAYPRP | -0.387
RRIRTRPPRLPRPRPRPDDLPRP | 0.0162
RRIRTRPPRLPRPRPRPNIEPRP | 0.105
RRIRWRPPRLPRPRPRPQYFPRP | -0.181
RRIRLRPPRLPRPRPRPMNQPRP | -0.302
RRIRLRPPRLPRPRPRPHTDPRP | -0.223
RRIRKRPPRLPRPRPRPHAQPRP | 0.133
RRIRGRPPRLPRPRPRPSEVPRP | 0.425
RRIRSRPPRLPRPRPRPSYGPRP | -0.0636
RRIRKRPPRLPRPRPRPTQKPRP | 0.0634
RRIRKRPPRLPRPRPRPNMQPRP | 0.26
RRIRWRPPRLPRPRPRPMNTPRP | -0.28
RRIRKRPPRLPRPRPRPILTPRP | -0.149
RRIRERPPRLPRPRPRPADLPRP | -0.175
RRIRKRPPRLPRPRPRPLWWPRP | 0.477
RRIRFRPPRLPRPRPRPCMVPRP | 1.01
RRIRHRPPRLPRPRPRPPTLPRP | 0.246
RRIRDRPPRLPRPRPRPLFRPRP | -0.168
RRIRGRPPRLPRPRPRPNGIPRP | 0.287

Sequence | shrunken log2 fold change
RRIRGRPPRLPRPRPRPLLSPRP | 1.04
RRIRYRPPRLPRPRPRPYDKPRP | -1.24
RRIRERPPRLPRPRPRPWMLPRP | -0.234
RRIRVRPPRLPRPRPRPMPMPRP | 0.0529
RRIRSRPPRLPRPRPRPSALPRP | -0.0202
RRIRGRPPRLPRPRPRPYSRPRP | -0.024
RRIRARPPRLPRPRPRPWWIPRP | -0.0901
RRIRFRPPRLPRPRPRPRRSPRP | 0.0713
RRIRVRPPRLPRPRPRPLNAPRP | -0.331
RRIRSRPPRLPRPRPRPRDWPRP | 0.4
RRIRTRPPRLPRPRPRPRKAPRP | 0.326
RRIRERPPRLPRPRPRPECPPRP | 0.0592
RRIRYRPPRLPRPRPRPAPTPRP | 0.169
RRIRWRPPRLPRPRPRPLEMPRP | 0.373
RRIRTRPPRLPRPRPRPWADPRP | 0.015
RRIRNRPPRLPRPRPRPASYPRP | -0.148
RRIRQRPPRLPRPRPRPWICPRP | 0.117
RRIRPRPPRLPRPRPRPVMPPRP | 0.188
RRIRKRPPRLPRPRPRPIHVPRP | -0.0353
RRIRFRPPRLPRPRPRPITIPRP | -0.195
RRIRSRPPRLPRPRPRPQKSPRP | -0.181
RRIRIRPPRLPRPRPRPPTDPRP | 1.33
RRIRARPPRLPRPRPRPMTQPRP | 0.249
RRIRDRPPRLPRPRPRPHMTPRP | -0.0927
RRIRQRPPRLPRPRPRPSILPRP | -0.177

Sequence | shrunken log2 fold change
RRIRVRPPRLPRPRPRPDRYPRP | -0.00296
RRIRCRPPRLPRPRPRPRAAPRP | 0.779
RRIRHRPPRLPRPRPRPTHKPRP | 0.0457
RRIRARPPRLPRPRPRPAYDPRP | 0.00165
RRIRERPPRLPRPRPRPPCEPRP | -0.075
RRIRERPPRLPRPRPRPHQWPRP | -0.199
RRIRARPPRLPRPRPRPETEPRP | 1.39
RRIRLRPPRLPRPRPRPKGTPRP | 0.0017
RRIRARPPRLPRPRPRPNDWPRP | 0.466
RRIRARPPRLPRPRPRPAMNPRP | 0.121
RRIRKRPPRLPRPRPRPEGYPRP | 0.0317
RRIRFRPPRLPRPRPRPSKLPRP | -0.42
RRIRGRPPRLPRPRPRPISWPRP | -0.0765
RRIRFRPPRLPRPRPRPQAVPRP | 0.0175
RRIRRRPPRLPRPRPRPNRGPRP | -0.0468
RRIRLRPPRLPRPRPRPSFDPRP | -0.373
RRIRGRPPRLPRPRPRPKIFPRP | 0.288
RRIRARPPRLPRPRPRPMVFPRP | 0.508
RRIRRRPPRLPRPRPRPNVIPRP | -0.265
RRIRQRPPRLPRPRPRPCPQPRP | -0.153
RRIRVRPPRLPRPRPRPQMVPRP | 0.0123
RRIRIRPPRLPRPRPRPPCQPRP | 0.0801
RRIRGRPPRLPRPRPRPYYNPRP | -0.48
RRIRVRPPRLPRPRPRPDHKPRP | -0.0198
RRIRYRPPRLPRPRPRPNYTPRP | -0.562

Sequence | shrunken log2 fold change
RRIRSRPPRLPRPRPRPALGPRP | 0.505
RRIRWRPPRLPRPRPRPNRVPRP | -0.0395
RRIRLRPPRLPRPRPRPYSPPRP | -0.299
RRIRVRPPRLPRPRPRPTTYPRP | -0.465
RRIRNRPPRLPRPRPRPSFRPRP | 0.0751
RRIRKRPPRLPRPRPRPPTSPRP | 0.146
RRIRSRPPRLPRPRPRPPHTPRP | 0.159
RRIRNRPPRLPRPRPRPYDQPRP | -0.37
RRIRKRPPRLPRPRPRPPGEPRP | 0.617
RRIRMRPPRLPRPRPRPEMYPRP | 0.216
RRIRPRPPRLPRPRPRPFQGPRP | -0.0115
RRIRCRPPRLPRPRPRPNIGPRP | -0.138
RRIRQRPPRLPRPRPRPWKDPRP | -0.0211
RRIRVRPPRLPRPRPRPYDDPRP | -0.000921
RRIRVRPPRLPRPRPRPERMPRP | -0.0652
RRIRTRPPRLPRPRPRPSSIPRP | -0.233
RRIRNRPPRLPRPRPRPTWNPRP | -0.0528
RRIRVRPPRLPRPRPRPHQHPRP | -0.189
RRIRQRPPRLPRPRPRPPRKPRP | 0.835
RRIRQRPPRLPRPRPRPENVPRP | -0.0767
RRIRSRPPRLPRPRPRPKGCPRP | 0.134
RRIRERPPRLPRPRPRPWIPPRP | 0.0136
RRIRGRPPRLPRPRPRPCDCPRP | -0.0193
RRIRFRPPRLPRPRPRPELNPRP | 0.164
RRIRTRPPRLPRPRPRPSWLPRP | 0.11

Sequence | shrunken log2 fold change
RRIRTRPPRLPRPRPRPRCFPRP | 0.204
RRIRMRPPRLPRPRPRPLDEPRP | 0.0492
RRIRDRPPRLPRPRPRPKSGPRP | 0.0754
RRIRCRPPRLPRPRPRPTIIPRP | -0.343
RRIRMRPPRLPRPRPRPMNVPRP | -0.147
RRIRWRPPRLPRPRPRPNKFPRP | -0.369
RRIRARPPRLPRPRPRPIKTPRP | 0.213
RRIRDRPPRLPRPRPRPHIMPRP | -0.981
RRIRSRPPRLPRPRPRPDTTPRP | -0.191
RRIRRRPPRLPRPRPRPQGKPRP | 0.0379
RRIRPRPPRLPRPRPRPMFNPRP | -0.648
RRIRGRPPRLPRPRPRPCYDPRP | 0.156
RRIRDRPPRLPRPRPRPYFWPRP | -0.0487
RRIRWRPPRLPRPRPRPLTHPRP | -0.00362
RRIRHRPPRLPRPRPRPKAQPRP | 0.0148
RRIRRRPPRLPRPRPRPCWDPRP | 0.234
RRIRLRPPRLPRPRPRPGADPRP | 0.28
RRIRWRPPRLPRPRPRPSDWPRP | 0.12
RRIRMRPPRLPRPRPRPDKTPRP | 0.00408
RRIRYRPPRLPRPRPRPVHVPRP | -1.35
RRIRMRPPRLPRPRPRPVQDPRP | 0.32
RRIRSRPPRLPRPRPRPMITPRP | -0.19
RRIRQRPPRLPRPRPRPNHGPRP | -0.00507
RRIRPRPPRLPRPRPRPFMQPRP | -0.396
RRIRPRPPRLPRPRPRPWERPRP | 0.0097
